Reference: patent US20200087373A1 (UNIVERSITY OF COPENHAGEN, published 2020)
Ends that are not written are not given here. * marks the point of attachment. C16 diacid = O=C(O)CCCCCCCCCCCCCCC(=O)*; Palmitoyl = CCCCCCCCCCCCCCCC(=O)*

T1: human GIP receptor (human, UniProt P48546 22-466)
T1 sequence (looked up): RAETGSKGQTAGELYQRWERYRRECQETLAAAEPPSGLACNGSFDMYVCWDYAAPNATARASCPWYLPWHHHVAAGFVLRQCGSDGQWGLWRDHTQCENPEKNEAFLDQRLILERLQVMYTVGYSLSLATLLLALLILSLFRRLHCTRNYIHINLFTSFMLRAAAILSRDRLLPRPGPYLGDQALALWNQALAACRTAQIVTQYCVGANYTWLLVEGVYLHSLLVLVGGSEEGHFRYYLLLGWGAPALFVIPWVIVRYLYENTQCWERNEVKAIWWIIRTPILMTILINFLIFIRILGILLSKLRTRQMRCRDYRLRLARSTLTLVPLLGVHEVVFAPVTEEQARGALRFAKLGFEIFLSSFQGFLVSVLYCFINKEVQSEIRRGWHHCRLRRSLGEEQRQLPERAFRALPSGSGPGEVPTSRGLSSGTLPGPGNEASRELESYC


Molecular target: T1, human GIP receptor
Experiment: cell-based or functional assay

Row | Binder | cAMP agonism, Emax | cAMP antagonism, log (IC50) | cAMP antagonism, nM (IC50) | cAMP agonism, EC50 (log) | cAMP agonism, nM (EC50)
1 | EGTFISDYSIAMDK(Palmitoyl)IKQQDFVNWLLAQK-NH2 (N-terminus assumed; SMILES CCCCCCCCCCCCCCCC(=O)NCCCC[C@H](NC(=O)[C@H](CC(=O)O)NC(=O)[C@H](CCSC)NC(=O)[C@H](C)NC(=O)[C@@H](NC(=O)[C@H](CO)NC(=O)[C@H](Cc1ccc(O)cc1)NC(=O)[C@H](CC(=O)O)NC(=O)[C@H](CO)NC(=O)[C@@H](NC(=O)[C@H](Cc1ccccc1)NC(=O)[C@@H](NC(=O)CNC(=O)[C@@H](N)CCC(=O)O)[C@@H](C)O)[C@@H](C)CC)[C@@H](C)CC)C(=O)N[C@H](C(=O)N[C@@H](CCCCN)C(=O)N[C@@H](CCC(N)=O)C(=O)N[C@@H](CCC(N)=O)C(=O)N[C@@H](CC(=O)O)C(=O)N[C@@H](Cc1ccccc1)C(=O)N[C@H](C(=O)N[C@@H](CC(N)=O)C(=O)N[C@@H](Cc1c[nH]c2ccccc12)C(=O)N[C@@H](CC(C)C)C(=O)N[C@@H](CC(C)C)C(=O)N[C@@H](C)C(=O)N[C@@H](CCC(N)=O)C(=O)N[C@@H](CCCCN)C(N)=O)C(C)C)[C@@H](C)CC) [AT163 [hGIP(3-30)NH2[H18K]-C16/16]] | 0% | -6.7 log M | 212 nM | – | –
2 | K(C16 diacid)GTFISDYSIAMDKIHQQDFVNWLLAQK-NH2 (N-terminus assumed; SMILES CC[C@H](C)[C@H](NC(=O)[C@H](CO)NC(=O)[C@H](Cc1ccc(O)cc1)NC(=O)[C@H](CC(=O)O)NC(=O)[C@H](CO)NC(=O)[C@@H](NC(=O)[C@H](Cc1ccccc1)NC(=O)[C@@H](NC(=O)CNC(=O)[C@@H](N)CCCCNC(=O)CCCCCCCCCCCCCCC(=O)O)[C@@H](C)O)[C@@H](C)CC)C(=O)N[C@@H](C)C(=O)N[C@@H](CCSC)C(=O)N[C@@H](CC(=O)O)C(=O)N[C@@H](CCCCN)C(=O)N[C@H](C(=O)N[C@@H](Cc1c[nH]cn1)C(=O)N[C@@H](CCC(N)=O)C(=O)N[C@@H](CCC(N)=O)C(=O)N[C@@H](CC(=O)O)C(=O)N[C@@H](Cc1ccccc1)C(=O)N[C@H](C(=O)N[C@@H](CC(N)=O)C(=O)N[C@@H](Cc1c[nH]c2ccccc12)C(=O)N[C@@H](CC(C)C)C(=O)N[C@@H](CC(C)C)C(=O)N[C@@H](C)C(=O)N[C@@H](CCC(N)=O)C(=O)N[C@@H](CCCCN)C(N)=O)C(C)C)[C@@H](C)CC) [AT294 [hGIP(3-30)NH2[E3K]-C16diacid/3]] | 74% | -8.6 log M | 2.5 nM | -8.7 log M | 1.8 nM
3 | EK(C16 diacid)TFISDYSIAMDKIHQQDFVNWLLAQK-NH2 (N-terminus assumed; SMILES CC[C@H](C)[C@H](NC(=O)[C@H](CO)NC(=O)[C@H](Cc1ccc(O)cc1)NC(=O)[C@H](CC(=O)O)NC(=O)[C@H](CO)NC(=O)[C@@H](NC(=O)[C@H](Cc1ccccc1)NC(=O)[C@@H](NC(=O)[C@H](CCCCNC(=O)CCCCCCCCCCCCCCC(=O)O)NC(=O)[C@@H](N)CCC(=O)O)[C@@H](C)O)[C@@H](C)CC)C(=O)N[C@@H](C)C(=O)N[C@@H](CCSC)C(=O)N[C@@H](CC(=O)O)C(=O)N[C@@H](CCCCN)C(=O)N[C@H](C(=O)N[C@@H](Cc1c[nH]cn1)C(=O)N[C@@H](CCC(N)=O)C(=O)N[C@@H](CCC(N)=O)C(=O)N[C@@H](CC(=O)O)C(=O)N[C@@H](Cc1ccccc1)C(=O)N[C@H](C(=O)N[C@@H](CC(N)=O)C(=O)N[C@@H](Cc1c[nH]c2ccccc12)C(=O)N[C@@H](CC(C)C)C(=O)N[C@@H](CC(C)C)C(=O)N[C@@H](C)C(=O)N[C@@H](CCC(N)=O)C(=O)N[C@@H](CCCCN)C(N)=O)C(C)C)[C@@H](C)CC) [AT295 [hGIP(3-30)NH2[G4K]-C16diacid/4]] | 78.6% | -8.1 log M | 9.5 nM | -8.6 log M | 2.6 nM
